Assay results: patent US20030148958A1 (PROCTER AND GAMBLE, published 2003)
Ends that are not written are not given here.

T1: CRF2R
T1 sequence (Q13324 whole entry, species assumed, looked up): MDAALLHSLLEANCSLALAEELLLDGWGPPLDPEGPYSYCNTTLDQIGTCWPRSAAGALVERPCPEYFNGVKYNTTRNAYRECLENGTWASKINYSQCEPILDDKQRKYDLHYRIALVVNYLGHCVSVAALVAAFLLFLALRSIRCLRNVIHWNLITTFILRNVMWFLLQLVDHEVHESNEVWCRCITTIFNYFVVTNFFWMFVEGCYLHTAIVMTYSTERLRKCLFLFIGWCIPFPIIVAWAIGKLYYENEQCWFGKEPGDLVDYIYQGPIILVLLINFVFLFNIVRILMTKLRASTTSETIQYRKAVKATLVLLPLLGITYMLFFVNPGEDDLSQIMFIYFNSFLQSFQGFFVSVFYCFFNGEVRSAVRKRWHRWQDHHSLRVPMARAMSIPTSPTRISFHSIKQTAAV


Columns and labels:
[1] = biological target: CRF1R; assay: cell-based or functional assay
[2] = biological target: T1, CRF2R; assay: cell-based or functional assay
For CRF1R Emax % in this document: reference of the scale not given here.
For CRF2R Emax % in this document: reference of the scale not given here.

Binder | CRF1R EC50 [1] | CRF2R EC50 [2] | CRF1R Emax % [1] | CRF2R Emax % [2]
IVLSLDVPIGLLQILLEQARARAAREQATTNARILARVM-NH2 [SEQ ID NO 356] | 1000 nM | 83 nM |  | 
IVLSLDVPIGLLQILLEQARARAAREQATTNARILARVM-NH2 [SEQ ID NO 368] | 1000 nM | 50.4 nM |  | 
DNPSLSIDLPLLLLRTLLELEKTQSQRERAEQNAIIFASV-NH2 [SEQ ID NO 347] | 1000 nM | 22.4 nM |  | 
IVLSLDVPIGLLQILLEQARARAAREQATTNARILARV-NH2 [SEQ ID NO 354] | 1000 nM | 6.48 nM | 13.4% | 100%
IVLSLDVPIGLLQILLEQARHAHAHAHAHAQAHILAHV-NH2 [SEQ ID NO 369] | 1000 nM | 100 nM | 4% | 18%
IVLSLDVPIGLLQILLEQARHAAAHAAAHAQAHILAHV-NH2 [SEQ ID NO 367] | 1000 nM | 100 nM | 6% | 18%
IVLSLDVPIHLLQILLEQARARAAREQATTNARILARV-NH2 [SEQ ID NO 371] | 1000 nM | 6.62 nM | 22% | 97%
IVLSLDVPIGLLQILLEKAAAEAEAAAKAAQEQILAHV-NH2 [SEQ ID NO 366] | 1000 nM | 100 nM | 9% | 46%
DNPSLSIDLPLLLLRTLLELEKTQSQRERAEQNAIIFASV-NH2 [SEQ ID NO 346] | 1000 nM | 8.48 nM |  | 
ZGPPISIDLPFQLLRILIEIEKQEKEKQQAANNALLLAT (C-terminal amide) [SEQ ID NO 358] | 99 nM | 5.56 nM | 100% | 100%
IVLSLDVSIGLLQILLEQARARAAREQATTNARILARV-NH2 [SEQ ID NO 370] | 1000 nM | 51 nM | 33% | 75%
PSLSIDLPLLLLRTLLELEKTQSQRERAEQNAIIFASV-NH2 [SEQ ID NO 348] | 630 nM | 5.77 nM |  | 
DNPSLSIDLPLILLRTLLELEKTQSQRERAEQNAIIFASV-NH2 [SEQ ID NO 345] | 1000 nM | 39.7 nM | 18.8% | 100%
ZGPPISIDLPFQLLRKVIEIEKQEKEKQQATTNARLLDRV (C-terminal amide) [SEQ ID NO 351] | 1000 nM | 12.9 nM | 85.7% | 97.4%
ZGPPISIDLPFQLLRKAIEIEKQEKEKQQATTNARLLDRV (C-terminal amide) [SEQ ID NO 363] | 1000 nM | 25.1 nM | 20% | 100%
ZGPPISIDLPLYLLRKMIEIEKQEKEKQQATTNARILARV (C-terminal amide) [SEQ ID NO 353] | 230 nM | 4.75 nM | 92.2% | 89.9%
ZGPPISIDLPLQLLRKVIEIEKQEKEKQQAANNALLLATI (C-terminal amide) [SEQ ID NO 349] | 1000 nM | 13.8 nM | 44.2% | 100%
ZGPPISIDLPFQLLRKVIEIEKQEKEKQQAANNALLLDTI (C-terminal amide) [SEQ ID NO 350] | 1000 nM | 11.6 nM | 48% | 98.1%
ZGPPISIDVPYHLLRKVIEIEKQEKEKQQAANNARLLDTI (C-terminal amide) [SEQ ID NO 376] | 1000 nM | 52.5 nM | 8% | 100%
ZGPPISIDVPYHLLRKVIEIEKQEKEKQQAANNARLLARI (C-terminal amide) [SEQ ID NO 377] | 1000 nM | 19.2 nM | 25% | 83%

Binder | CRF1R EC50 [1] | CRF2R EC50 [2] | CRF1R Emax % [1] | CRF2R Emax % [2]
ZGPPISIDVPYYLLRKVIEIEKQEKEKQQAANNARLLARI (C-terminal amide) [SEQ ID NO 378] | 1000 nM | 14.9 nM | 36% | 100%
ZGPPISIDVPIYLLRKVIEIEKQEKEKQQAANNARLLARI (C-terminal amide) [SEQ ID NO 379] | 1000 nM | 70.5 nM | 8% | 94%
ZGPPISIDLPFQLLRKIIEIEKQEKEKQQAANNALLLATI (C-terminal amide) [SEQ ID NO 362] | 386 nM | 4.39 nM | 100% | 100%
ZGPPISIDLPFQLLRKAIEIEKQEKEKQQAANNALLLATI (C-terminal amide) [SEQ ID NO 364] | 1000 nM | 13.2 nM | 27% | 100%
ZGPPISIDVPYWLLRKVIEIEKQEKEKQQAANNARLLARI (C-terminal amide) [SEQ ID NO 373] | 1000 nM | 11.5 nM | 9% | 100%
ZGPPISIDVPFQLLRKVIEIEKQEKEKQQAANNARLLARI (C-terminal amide) [SEQ ID NO 383] | 1000 nM | 9.31 nM | 55% | 96%
ZGPPISIDVPLQLLRKVIEIEKQEKEKQQAANNARLLDTI (C-terminal amide) [SEQ ID NO 380] | 1000 nM | 19 nM | 16% | 100%
ZGPPISIDLPFQLLRLLIEIEKQEKEKQQAANNALLLATI (C-terminal amide) [SEQ ID NO 360] | 157 nM | 6.12 nM | 100% | 93%
ZGPPISIDVPYQLLRKVIEIEKQEKEKQQAANNARLLARI (C-terminal amide) [SEQ ID NO 375] | 1000 nM | 11.5 nM | 22% | 100%
ZGPPISIDLPFQLLRKVIEIEKQEKEKQQAANNALLLATI (C-terminal amide) [SEQ ID NO 352] | 780 nM | 8.26 nM | 82.6% | 83.7%
ZGPPISIDLSLELLRKMIEIEKQEKEKQQAANNRLLLDTI (C-terminal amide) [SEQ ID NO 355] | 18 nM | 6.03 nM | 100% | 95%
ZGPPISIDLPFQLLRVLIEIEKQEKEKQQAANNALLLATI (C-terminal amide) [SEQ ID NO 361] | 149 nM | 6.37 nM | 100% | 99%
ZGPPISIDLPFQLLRKAIEIEKQEKEKQQAANNALLLDTI (C-terminal amide) [SEQ ID NO 365] | 1000 nM | 23.4 nM | 21% | 94%
ZGPPISIDVPYWLLRKVIEIEKQEKEKQQAANNARLLDTI (C-terminal amide) [SEQ ID NO 372] | 1000 nM | 14.2 nM | 13% | 100%
ZGPPISIDVPYQLLRKVIEIEKQEKEKQQAANNARLLDTI (C-terminal amide) [SEQ ID NO 374] | 1000 nM | 15.8 nM | 11% | 91%
ZGPPISIDLPFQLLREVIEIEKQEKEKQQAANNALLLATI (C-terminal amide) [SEQ ID NO 359] | 230 nM | 23.1 nM | 100% | 100%
ZGPPISIDLPFQLLRKLIEIEKQEKEKQQAANNALLLATI (C-terminal amide) [SEQ ID NO 357] | 331 nM | 6.44 nM | 100% | 100%
ZGPPISIDVPFQLLRKVIEIEKQEKEKQQAANNARLLDTI (C-terminal amide) [SEQ ID NO 382] | 1000 nM | 39.5 nM | 8% | 100%
ZGPPISIDVPLQLLRKVIEIEKQEKEKQQAANNARLLARI (C-terminal amide) [SEQ ID NO 381] | 1000 nM | 12.7 nM | 27% | 99%
